T1: Bfl-1, Q16548
T1 chain: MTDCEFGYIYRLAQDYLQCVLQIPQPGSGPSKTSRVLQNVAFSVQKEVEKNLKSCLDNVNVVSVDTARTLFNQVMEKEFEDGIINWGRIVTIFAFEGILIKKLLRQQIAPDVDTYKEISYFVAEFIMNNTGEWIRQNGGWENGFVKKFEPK

T2: Mcl-1, Q07820
T2 chain: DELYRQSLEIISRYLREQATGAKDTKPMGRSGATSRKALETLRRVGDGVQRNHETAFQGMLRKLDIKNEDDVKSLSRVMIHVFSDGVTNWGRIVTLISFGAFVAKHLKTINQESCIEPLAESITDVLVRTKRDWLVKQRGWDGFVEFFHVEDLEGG


The binders below were run against Bcl-xL, Q07817 (assay: peptide SPOT array, c-Myc-tagged receptor at 1 uM or 100 nM, anti-c-Myc-Cy3).
Bcl-xL, Q07817, sequence (Q07817 1-209): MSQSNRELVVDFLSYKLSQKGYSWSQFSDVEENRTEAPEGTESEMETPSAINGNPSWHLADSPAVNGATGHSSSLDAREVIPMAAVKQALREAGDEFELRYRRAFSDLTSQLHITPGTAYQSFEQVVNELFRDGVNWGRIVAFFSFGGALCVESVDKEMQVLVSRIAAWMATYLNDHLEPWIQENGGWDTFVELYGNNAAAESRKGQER

In order of falling SPOT signal as a fraction of Bim BH3's signal on the same receptor and array:
1. GTAVAYRGAHLRGRGRAVYNTFRAAP [XXXX]  2.82
2. RVCPYYLSRNDKQQADIIFMPYNYLL [RTEL1]  1.3
3. RLRQLGVAKKDGVLSDNFKGKRIVLV [PPAT]  1.16
4. LALLAQPSHLMRQVARSVFGHICSHL [MYBBP1A]  0.96
5. AEVMRQRGINMRYLGKVLELVLRSPA [KIAA0664]  0.94
6. TRRSMVFARHDREVGDEFRSRHLNST [POFUT2]  0.85
7. ACGDSVLARMLRELLDSLRRPQLRLW [SLC19A1]  0.71
8. AELRLFLAQRLRWLLDSCPASRATCV [NBEAL2]  0.52
9. LCQLSCVSKLMRDVLGSLLQSRGMVI [FBXO30]  0.38
10. PKKKMTLSEIYQWICDNFPYYREAGS [FOXJ3]  0.33
11. YIVLGLRKTTDQKVGKEVAELVGRVG [NLRX1]  0.32
12. TVATRRLSGFLRTLLDRLEGTKELLS  0.31
13. GGRVKLVHSALIQLGDSLSHKGNEFW [WDR60]  0.3
14. TVATRRLSGFDRTLADRLEGTKELLS  0.29
15. QASREAGAAALRNVLQRLFENYQTQS [CCDC68]  0.28
16. YFKLFRASGDDRTNGDNYLYEIQLSS [IGF2R]  0.25
17. KGTAVAICRRLGIFGDTEDVAGKAYT [ATP2A3]  0.23
18. SMRRNAMGVGDVFEADLFTTRHISHW [DNAH10]  0.12
19. NGGLLEFHKSLQEIGDKNDHWFDIDP [DZIP3]  0.11
20. QAGPVSSGLADRKLGDRVQLLNLLVT [CCDC57]  0.1
21. MRPEIWIAQELRRILDEFNAYYARRV [BCL2L11]  0.1
22. RKDAELLCWDLRQSLYPLWSLGREVT  0.09
23. QRKHEGFERDDAALGDKVNSLGETAE [SPTAN1]  0.08
24. AGYELLIQKFDSLYGDQIDMHRKFVV [ISOC1]  0.08
25. SHFVACMTAILNQMLDQHYSFYIETF [DOCK2]  0.08
26. RKDAELLCWDLRQSGYPLWSLGREVT  0.07
27. LSIIYTLVEIDQNIGDTNLADFTAGL [SLC26A4]  0.07
28. FGEYSGISENIILVLDDFWIPETSFI [ROS1]  0.07
29. DSLLWKLAGLDRESGDVVLSGCSTLS [STK11IP]  0.06
30. EAVTDGLKRADRSFGNALGNCILDKD [RAD52]  0.05
31. HHSSQEMSSEYREYADSFGKCPGGRN [PCYT2]  0.05
32. HQAEVQIARKDQCIADQFHRLHVQQH [BMF]  0.03

Biological target: T1, Bfl-1, Q16548
Assay: as above

In order of falling SPOT signal as a fraction of Bim BH3's signal on the same receptor and array:
1. GTAVAYRGAHLRGRGRAVYNTFRAAP [XXXX]  1.26
2. RVCPYYLSRNDKQQADIIFMPYNYLL [RTEL1]  0.67
3. TRRSMVFARHDREVGDEFRSRHLNST [POFUT2]  0.61
4. LALLAQPSHLMRQVARSVFGHICSHL [MYBBP1A]  0.57
5. AELRLFLAQRLRWLLDSCPASRATCV [NBEAL2]  0.53
6. AEVMRQRGINMRYLGKVLELVLRSPA [KIAA0664]  0.52
7. RLRQLGVAKKDGVLSDNFKGKRIVLV [PPAT]  0.44
8. LCQLSCVSKLMRDVLGSLLQSRGMVI [FBXO30]  0.38
9. GGRVKLVHSALIQLGDSLSHKGNEFW [WDR60]  0.36
10. ACGDSVLARMLRELLDSLRRPQLRLW [SLC19A1]  0.33
11. YFKLFRASGDDRTNGDNYLYEIQLSS [IGF2R]  0.29
12. KGTAVAICRRLGIFGDTEDVAGKAYT [ATP2A3]  0.25
13. TVATRRLSGFLRTLLDRLEGTKELLS  0.21
14. YIVLGLRKTTDQKVGKEVAELVGRVG [NLRX1]  0.19
15. QASREAGAAALRNVLQRLFENYQTQS [CCDC68]  0.18
16. PKKKMTLSEIYQWICDNFPYYREAGS [FOXJ3]  0.12
17. TVATRRLSGFDRTLADRLEGTKELLS  0.12
18. SMRRNAMGVGDVFEADLFTTRHISHW [DNAH10]  0.09
19. QRKHEGFERDDAALGDKVNSLGETAE [SPTAN1]  0.08
20. QAGPVSSGLADRKLGDRVQLLNLLVT [CCDC57]  0.07
21. SHFVACMTAILNQMLDQHYSFYIETF [DOCK2]  0.06
22. RKDAELLCWDLRQSLYPLWSLGREVT  0.05
23. RKDAELLCWDLRQSGYPLWSLGREVT  0.05
24. AGYELLIQKFDSLYGDQIDMHRKFVV [ISOC1]  0.05
25. MRPEIWIAQELRRILDEFNAYYARRV [BCL2L11]  0.05
26. DSLLWKLAGLDRESGDVVLSGCSTLS [STK11IP]  0.04
27. NGGLLEFHKSLQEIGDKNDHWFDIDP [DZIP3]  0.04
28. FGEYSGISENIILVLDDFWIPETSFI [ROS1]  0.04
29. LSIIYTLVEIDQNIGDTNLADFTAGL [SLC26A4]  0.03
30. EAVTDGLKRADRSFGNALGNCILDKD [RAD52]  0.03
31. HHSSQEMSSEYREYADSFGKCPGGRN [PCYT2]  0.03
32. HQAEVQIARKDQCIADQFHRLHVQQH [BMF]  0.01

Biological target: T2, Mcl-1, Q07820
Assay: as above

In order of rising SPOT signal as a fraction of Bim BH3's signal on the same receptor and array:
1. HQAEVQIARKDQCIADQFHRLHVQQH [BMF]  0.01
2. DSLLWKLAGLDRESGDVVLSGCSTLS [STK11IP]  0.04
3. NGGLLEFHKSLQEIGDKNDHWFDIDP [DZIP3]  0.04
4. EAVTDGLKRADRSFGNALGNCILDKD [RAD52]  0.04
5. HHSSQEMSSEYREYADSFGKCPGGRN [PCYT2]  0.04
6. MRPEIWIAQELRRILDEFNAYYARRV [BCL2L11]  0.05
7. RKDAELLCWDLRQSGYPLWSLGREVT  0.06
8. LSIIYTLVEIDQNIGDTNLADFTAGL [SLC26A4]  0.06
9. FGEYSGISENIILVLDDFWIPETSFI [ROS1]  0.06
10. RKDAELLCWDLRQSLYPLWSLGREVT  0.07
11. QAGPVSSGLADRKLGDRVQLLNLLVT [CCDC57]  0.07
12. AGYELLIQKFDSLYGDQIDMHRKFVV [ISOC1]  0.07
13. SHFVACMTAILNQMLDQHYSFYIETF [DOCK2]  0.07
14. SMRRNAMGVGDVFEADLFTTRHISHW [DNAH10]  0.09
15. QRKHEGFERDDAALGDKVNSLGETAE [SPTAN1]  0.09
16. KGTAVAICRRLGIFGDTEDVAGKAYT [ATP2A3]  0.19
17. QASREAGAAALRNVLQRLFENYQTQS [CCDC68]  0.2
18. PKKKMTLSEIYQWICDNFPYYREAGS [FOXJ3]  0.22
19. YIVLGLRKTTDQKVGKEVAELVGRVG [NLRX1]  0.24
20. LCQLSCVSKLMRDVLGSLLQSRGMVI [FBXO30]  0.26
21. YFKLFRASGDDRTNGDNYLYEIQLSS [IGF2R]  0.28
22. TVATRRLSGFDRTLADRLEGTKELLS  0.28
23. ACGDSVLARMLRELLDSLRRPQLRLW [SLC19A1]  0.28
24. TVATRRLSGFLRTLLDRLEGTKELLS  0.29
25. GGRVKLVHSALIQLGDSLSHKGNEFW [WDR60]  0.34
26. LALLAQPSHLMRQVARSVFGHICSHL [MYBBP1A]  0.57
27. RLRQLGVAKKDGVLSDNFKGKRIVLV [PPAT]  0.68
28. AEVMRQRGINMRYLGKVLELVLRSPA [KIAA0664]  0.69
29. AELRLFLAQRLRWLLDSCPASRATCV [NBEAL2]  0.72
30. RVCPYYLSRNDKQQADIIFMPYNYLL [RTEL1]  1.1
31. GTAVAYRGAHLRGRGRAVYNTFRAAP [XXXX]  1.6
32. TRRSMVFARHDREVGDEFRSRHLNST [POFUT2]  1.62

Source: publication PMC4072508, “Genome-Wide Prediction and Validation of Peptides That Bind Human Prosurvival Bcl-2 Proteins” (PLoS Computational Biology, 2014)
